Results: publication doi:10.1101/2025.08.18.670960

Target: UNC-119 tagged with the C-terminal fragment of Venus (C. elegans) (UniProt Q10658)
Test: split reporter (BiFC, NanoBiT); BiFC in AWC neurons of wild-type animals: VC::UNC-119 with ODR-3::VN variants; read-out is percent of transgenic animals with signal; free VN as negative control

Sequence of UniProt Q10658 (Q10658 whole entry, the tested form may be a part): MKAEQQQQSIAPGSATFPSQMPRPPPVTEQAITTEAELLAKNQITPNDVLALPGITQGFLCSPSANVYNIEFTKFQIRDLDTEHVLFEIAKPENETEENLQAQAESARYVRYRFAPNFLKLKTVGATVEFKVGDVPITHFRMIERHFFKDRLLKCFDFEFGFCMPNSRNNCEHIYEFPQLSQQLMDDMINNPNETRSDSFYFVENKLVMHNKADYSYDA

Row | Substance | percent of transgenic animals with BiFC signal
1 | ODR-3^A328P tagged with the N-terminal Venus fragment (from UniProt Q18434 1-356) (natural protein) | 51%
2 | ODR-3^WT tagged with the N-terminal Venus fragment (from UniProt Q18434 1-356) (natural protein) | 81%
